Data: patent publication US9907791B2, “Ron inhibitors for use in preventing and treating bone loss” (UNIVERSITY OF UTAH RESEARCH FOUNDATION, priority 2014, dated 2018)

Key:
bone marrow osteoclasts = test: Osteoclast resorption assay; format: cell-based, mice; conditions: WT osteoclasts, inhibitors 10 μM or muRANK-Fc 10 μg/mL daily day 9 to 12
Protocol: Bone marrow osteoclasts were generated from 6 to 8 week old WT and RonTK−/− mice. Briefly, bone marrow was isolated from hindlimb bones and plated in α-MEM media containing 10% heat-inactivated fetal bovine serum (FBS, Sigma, St. Louis, Mo.), 100 units/mL penicillin-streptomycin (Hyclone), and 33 ng/mL human macrophage colony-stimulating factor (hM-CSF) (PeproTech, Rocky Hill, N.J.) for 24 hours. Non-adherent cells were collected and frozen for later use. To assess resorption activity, bone marrow precursor cells were thawed and seeded at a density of 1×10^5 cells per well in BioCoat Osteologic slides (BD Biosciences, San Jose, Calif.) in α-MEM media containing 10% FBS and antibiotics. After adhering overnight, media was removed and media containing 33 ng/mL hM-CSF and 9 ng/mL muRANKL (R & D systems, Minneapolis, Minn.) was added. The medium was changed every 3 days depending on acidification, and the assay was terminated as indicated. Recombinant human MSP was prepared and added daily as indicated. Cells were removed with 6% bleach and slides were viewed microscopically using phase-contrast with 20× magnification. Osteolytic resorption area within 5 representative fields was determined using Image J software, experiments were performed in triplicate. Recombinant MSP was prepared as follows (to be described in detail elsewhere): Concentrated, serum-free media from an MCF7 cell line engineered to overexpress MSP was cleaved with kallikrein (Invitrogen, Waltham, Mass.; 4 ng of kallikrein/1 μg of supernatant protein at 37° C. for 2.5 hours). The reaction was diluted to 20 mL with 10 mM sodium phosphate, pH 7.4 and loaded onto a 5 mL HiTrap heparin column (Millipore, Billerica, Mass.) equilibrated with 20 mL of 10 mM sodium phosphate, pH 7.4, at a rate of 1 mL/min. The column was washed with 10 mL of 10 mM sodium phosphate, pH 7.4, at a rate of 1 mL/min. […]

[1] = tested on: MSP-overexpressing MDA-MB-231 cells; test: Intratibial MSP-overexpressing MDA-MB-231 tumor-induced osteolysis; format: in vivo, NOD.SCID mice; conditions: treated 3 days post tumor cell injection, sacrificed 30 days
From the text: All procedures involving mice and experimental protocols were approved by the Institutional Animal Care and Use Committee (IACUC) of the University of Utah. The RonTK−/− mice which reside on the FVB background, were crossed with NOD.SCID mice for an immune-compromised mouse model. As a control, wild-type FVB mice were also crossed with NOD.SCID mice. The STK−/− mice, which are on a C57BL/6 background, were compared to wild-type C57BL/6 mice as controls. Mice for all experiments were 6 to 8 weeks of age. For intratibial injections, 1×10^5 (PyMTor DU4475) or 3×10^5 (MDA-MB-231) tumor cells were resuspended in 10 μL matrigel and injected into the right tibia of anesthetized female FVB (PyMT) or NOD.SCID mice carrying various alleles of RON. Osteolysis was assessed by X-ray radiography. Dissected hindlimbs from mice sacrificed at the final time point in each experiment were placed in the Kodak In-vivo Multispectral Imaging System FX and exposed to X-ray radiography at 35 kV for 100 sec. Excess tumor tissue was removed from the bones prior to X-ray. Osteolytic lesions were quantified using Image J software (NCBI). All images were compared to the contralateral leg as an internal control.
For in vivo experiments, the OSI-296 inhibitor was dissolved in 40% Trappsol with 0.01 M HCl, and mice were treated at a concentration of 200 mg/kg daily by oral gavage. […]

B1: muRANK-Fc: murine RANKL antagonist (Amgen) (protein)
chain: VTPPCTQERHYEHLGRCCSRCEPGKYLSSKCTPTSDSVCLPCGPDEYLDTWNEEDKCLLHKVCDAGKALVAVDPGNHTAPRRCACTAGYHWNSDCECCRRNTECAPGFGAQHPLQLNKDTVCTPCLLGFFSDVFSSTDKCKPWTNCTLLGKLEAHQGTTESDVVCSSSMTLRRPPKEAQAYLPS
modifications: left off: a dimerising Fc or GST
MSP-induced increase in osteoclast resorption (resorption area) (bone marrow osteoclasts): only slightly reduced | osteolysis from MSP-expressing MDA-MB-231 tumor cells [1]: did not significantly reduce
